Measurements reported in patent US5780296.

System: T1, REC2 recombinase (Ustilago maydis)
T1 sequence: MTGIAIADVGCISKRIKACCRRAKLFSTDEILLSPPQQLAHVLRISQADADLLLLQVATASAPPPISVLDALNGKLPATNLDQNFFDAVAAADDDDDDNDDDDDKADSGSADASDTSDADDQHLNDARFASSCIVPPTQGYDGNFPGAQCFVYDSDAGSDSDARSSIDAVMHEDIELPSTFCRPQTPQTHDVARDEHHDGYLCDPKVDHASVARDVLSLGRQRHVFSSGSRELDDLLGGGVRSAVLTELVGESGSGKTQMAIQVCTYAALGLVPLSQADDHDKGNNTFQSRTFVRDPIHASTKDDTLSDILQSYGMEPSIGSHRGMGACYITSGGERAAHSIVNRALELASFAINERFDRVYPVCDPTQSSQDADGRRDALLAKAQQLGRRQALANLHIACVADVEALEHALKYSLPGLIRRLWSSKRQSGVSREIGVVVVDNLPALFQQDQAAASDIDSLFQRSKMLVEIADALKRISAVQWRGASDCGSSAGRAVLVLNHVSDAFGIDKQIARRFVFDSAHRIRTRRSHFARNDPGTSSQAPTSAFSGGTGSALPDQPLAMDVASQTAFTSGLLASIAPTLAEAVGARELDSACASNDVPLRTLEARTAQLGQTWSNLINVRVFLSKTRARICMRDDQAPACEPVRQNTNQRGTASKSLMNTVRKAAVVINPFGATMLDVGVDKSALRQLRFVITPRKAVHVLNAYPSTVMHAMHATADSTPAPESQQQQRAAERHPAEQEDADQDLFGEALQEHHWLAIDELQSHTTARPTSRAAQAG
Settings: DNA-dependent ATPase turnover; 10 mM MgCl2, pH 7.5, 37 C

## M13 single-stranded circular DNA
  activity: 5.3 min⁻¹
